According to article doi:10.1101/2025.10.16.681972 (bioRxiv, 2025):

Molecular target: recombinant soluble form (ectodomain) of human MERTK (Homo sapiens, UniProt Q12866)
Experiment: SPR

Sequence of recombinant soluble form (ectodomain) of human MERTK (Q12866 21-505): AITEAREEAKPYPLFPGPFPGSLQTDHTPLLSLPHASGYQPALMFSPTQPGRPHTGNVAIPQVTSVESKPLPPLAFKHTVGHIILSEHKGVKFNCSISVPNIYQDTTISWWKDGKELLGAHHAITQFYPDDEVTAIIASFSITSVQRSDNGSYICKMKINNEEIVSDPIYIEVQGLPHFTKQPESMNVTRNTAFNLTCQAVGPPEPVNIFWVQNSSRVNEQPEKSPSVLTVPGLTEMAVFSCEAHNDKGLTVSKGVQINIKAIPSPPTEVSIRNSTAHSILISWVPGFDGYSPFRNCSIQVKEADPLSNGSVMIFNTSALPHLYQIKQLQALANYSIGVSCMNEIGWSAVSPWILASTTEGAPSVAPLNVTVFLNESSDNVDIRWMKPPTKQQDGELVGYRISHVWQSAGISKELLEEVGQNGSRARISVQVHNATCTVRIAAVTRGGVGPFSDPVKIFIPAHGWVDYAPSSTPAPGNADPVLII

B1: recombinant mAb745 (anti-MERTK, variable regions of mAb745 on human IgG1 and kappa constant regions) (antibody, V domains shown)
VH: DVQIQESGPGLVKSSQSLSLTCTVTGYSITNDYAWNWIRQFPGNKLEWMGYISYNGNTFYNPSLKSRISITRDTSKNQFFLQLSSVTTEDTATYYCGRLLPVSYAMDYWGQGTSVTVSS
VL: DVVMTQTPLSLPVSLGDQASISCRSSQSLVHSNGNTYLHWYLQKPGQSPKLLIYKVSNRFSGVPDRFSGSGSGTDFTLKISRVEAEDLGVYFCYQSTHVPWTFGGGTKLEIK
binding result: binds
